From patent publication US20240166720A1 (Janssen / Centocor, published 2024)

Legend:
[1] = target: native CD40 receptor on HEK-Blue CD40L reporter cells (UniProt P25942 21-277, limits assumed); assay: cell-based or functional assay
[2] = target: T1, recombinant CD40 receptor (hu CD40) (human, UniProt P25942 21-193, limits assumed, biotinylated in the MSD assay (site not stated)); assay: MSD electrochemiluminescence plate assay: biotinylated CD40 (10 ug/ml) on streptavidin plates, three-fold dilutions of the test article, anti-human Fc detection (Example 4)
T1 construct: also called biotinylated CD40
Procedure: Streptavidin sensor plates were coated with 10 ug/ml of biotinylated CD40 overnight at 4° C. The plates were washed 3× with PBS with 0.05% Tween 20 (PBST). Three-fold dilutions series of the test articles were prepared in PBS with 0.2% bovine serum albumin and 50 ul was applied to the plates for 1 hour at RT with shaking. Plates were washed 3× with PBST and anti-human Fc detection reagent at 2 ug/ml final concentration was applied for 1 hour at RT with shaking. The plates were washed 3× with PBST and 150 ul of 1× read buffer was added to the plates and data was collected on MSD instrument. Data was imported into […] Prism 8 software and analyzed and plotted based on the results three separate experiments.

T1 sequence (P25942 21-193 limits assumed): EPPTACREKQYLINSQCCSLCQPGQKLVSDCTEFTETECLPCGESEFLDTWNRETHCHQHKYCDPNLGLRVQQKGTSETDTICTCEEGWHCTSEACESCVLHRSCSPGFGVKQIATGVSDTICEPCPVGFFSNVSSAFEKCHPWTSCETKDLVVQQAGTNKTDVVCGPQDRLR
Sequence of native CD40 receptor on HEK-Blue CD40L reporter cells (P25942 21-277 limits assumed): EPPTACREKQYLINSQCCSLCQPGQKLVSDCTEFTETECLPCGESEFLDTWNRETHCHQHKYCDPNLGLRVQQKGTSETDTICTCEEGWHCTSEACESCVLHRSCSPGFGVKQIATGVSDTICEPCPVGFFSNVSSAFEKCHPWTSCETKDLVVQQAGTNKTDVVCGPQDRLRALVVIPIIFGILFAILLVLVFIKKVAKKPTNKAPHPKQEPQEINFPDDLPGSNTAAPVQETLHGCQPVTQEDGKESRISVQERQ

Binder | HEK-Blue reporter assay activity, fold against TPP000161222 [1] | EC50 (read off the curve) [2] | binding result [2]
TPP000182983 (Fc fusion, Single chain trimeric CD40L fused to the C-terminus of the Fc; also called C4LW16) HTCPPCPAPEAAGGPSVFLFPPKPKDTLMISRTPEVTCVVVSVSHEDPEVKFNWYVDGVEVHNAKTKPREEQYNSTYRVVSVLTVLHQDWLNGKEYKCKVSNKALPAPIEKTISKAKGQPREPQVYTLPPSREEMTKNQVSLTCLVKGFYPSDIAVEWESNGQPENNYKTTPPVLDSDGSFFLYSKLTVDKSRWQQGNVFSCSVMHEALHNHYTQKSLSLSPGGGGGSNPQIAAHVISEASSKTTSVLQWAEKGYYTMSNNLVTLENGKQLTVKRQGLYYIYAQVTFCSNREASSQAPFIASLCLKSPGRFERILLRAANTHSSAKPCGQQSIHLGGVFELQPGASVFVNVTDPSQVSHGTGFTSFGLLKLGGGSGGGSGGGSNPQIAAHVISEASSKTTSVLQWAEKGYYTMSNNLVTLENGKQLTVKRQGLYYIYAQVTFCSNREASSQAPFIASLCLKSPGRFERILLRAANTHSSAKPCGQQSIHLGGVFELQPGASVFVNVTDPSQVSHGTGFTSFGLLKLGGGSGGGSGGGSNPQIAAHVISEASSKTTSVLQWAEKGYYTMSNNLVTLENGKQLTVKRQGLYYIYAQVTFCSNREASSQAPFIASLCLKSPGRFERILLRAANTHSSAKPCGQQSIHLGGVFELQPGASVFVNVTDPSQVSHGTGFTSFGLLKL | 100 fold | ~0.09 µg/mL | –
TPP000161222 (Fc fusion, This protein had only 38.76% monomer after protein A; also called C40W33; JNJ75347415) IAAHVISEASSKTTSVLQWAEKGYYTMSNNLVTLENGKQLTVKRQGLYYIYAQVTFCSNREASSQAPFIASLCLKSPGRFERILLRAANTHSSAKPCGQQSIHLGGVFELQPGASVFVNVTDPSQVSHGTGFTSFGLLKLEGKSSGSGSQIAAHVISEASSKTTSVLQWAEKGYYTMSNNLVTLENGKQLTVKRQGLYYIYAQVTFCSNREASSQAPFIASLCLKSPGRFERILLRAANTHSSAKPCGQQSIHLGGVFELQPGASVFVNVTDPSQVSHGTGFTSFGLLKLEGKSSGSGSQIAAHVISEASSKTTSVLQWAEKGYYTMSNNLVTLENGKQLTVKRQGLYYIYAQVTFCSNREASSQAPFIASLCLKSPGRFERILLRAANTHSSAKPCGQQSIHLGGVFELQPGASVFVNVTDPSQVSHGTGFTSFGLLKLVERKSCVECPPCPAPPVAGPSVFLFPPKPKDTLMISRTPEVTCVVVDVSHEDPEVQFNWYVDGVEVHNAKTKPREEQFNSTFRVVSVLTVVHQDWLNGKEYKCKVSNKGLPAPIEKTISKTKGQPREPQVYTLPPSREEMTKNQVSLTCLVKGFYPSDIAVEWESNGQPENNYKTTPPMLDSDGSFFLYSKLTVDKSRWQQGNVFSCSVMHEALHNHYTQKSLSLSPGK | – | – | binds
